The record followed here is patent publication US20220259316A1 (SINOCELLTECH, published 2022).

The target of the test is T1, EGFR ECD recombinant protein (UniProt P00533 25-645, limits assumed).
T1 construct: extracellular domain; also called erbB1; Her1
Nature of the test: method not stated; recombinant EGFR ECD protein.

B1: recombinant fully human anti-EGFR monoclonal antibody N6-3 (antibody, human IgG1, kappa, V domains shown)
VH: QVQLQESGPGLVKPSETLSLTCTVSGGSVSSGDYYWSWIRQSPGKGLEWIGHIYYSGNTNYNPSLKSRLTISIDTSKNQFSLKLSSVTAADTAIYYCVRDRVTGAFDIWGQGTMVTVSS
VL: DIVMTQSPSTLSASVGDRVTITCQASQDISNYLNWYQQKPGKAPKLLIYDASSLETGVPSRFSGSGSGTDFTFTISGLQPEDIATYFCQHFDHLPLAFGGGTKVEIKR
notes: also called recombinant human anti-EGFR monoclonal antibody (N6-3)
In the case of B1, the dissociation constant Kd was determined as 50 pM.
